Source: PMC5587726

Tests used:
Assay in all cases: X-ray crystallography; UMPNPP, Mg2+; Crystals: DNA mixed with ~10 mg/mL protein (4:1 molar) on ice 1 h; cryoprotectant/soak 100 mM HEPES pH 7.5, 20% PEG 4000, 10 mM MgCl2, 50 mM NaCl, 5% glycerol
hPol μΔ2 G433A = hPol μΔ2 G433A (human, UniProt Q9NP87 132-397+=G+411-494, G433A;internal_change)
[1] = target: hPol μΔ2 wildtype (DNA polymerase mu catalytic domain, Loop2 deleted) (human, UniProt Q9NP87 132-397+=G+411-494, internal_change)
hPol μΔ2 W434A = hPol μΔ2 W434A (human, UniProt Q9NP87 132-397+=G+411-494, W434A;internal_change)
hPol μΔ2 W434A, sequence (Q9NP87 other isoform, or with tags, fused parts or gaps W434A/| W434A W434A): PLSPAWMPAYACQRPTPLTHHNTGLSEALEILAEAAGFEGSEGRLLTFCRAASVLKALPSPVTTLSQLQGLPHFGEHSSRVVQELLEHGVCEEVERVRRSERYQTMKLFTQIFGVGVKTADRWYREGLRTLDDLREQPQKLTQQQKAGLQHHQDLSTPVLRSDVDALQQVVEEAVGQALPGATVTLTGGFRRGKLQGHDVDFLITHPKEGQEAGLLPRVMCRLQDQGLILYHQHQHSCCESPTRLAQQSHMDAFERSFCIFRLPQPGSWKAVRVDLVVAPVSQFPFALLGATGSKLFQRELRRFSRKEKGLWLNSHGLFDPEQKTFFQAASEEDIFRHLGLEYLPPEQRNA

Measured: binding result

hPol μΔ2 wildtype (DNA polymerase mu catalytic domain, Loop2 deleted), sequence (Q9NP87 other isoform, or with tags, fused parts or gaps | mutant): as the sequence (Q9NP87 other isoform, or with tags, fused parts or gaps W434A/| W434A W434A) above, with A291W counted along it
hPol μΔ2 G433A, sequence (Q9NP87 other isoform, or with tags, fused parts or gaps G433A/| G433A G433A): as the sequence (Q9NP87 other isoform, or with tags, fused parts or gaps W434A/| W434A W434A) above, with G290A, A291W counted along it

B1: 1-nt gapped DNA (pre-catalytic) (dsDNA)
DNA 1: CGGCATACG
DNA 2: CGTA
DNA 3: GCCG
modifications: 5'-phosphate on downstream primer GCCG
binds: all assays above
